Read-outs that look alike come from different tables or passages of the source.

The subject of the test is SARS-CoV-2 (C-Tan-nCoV Wuhan strain 01). Format: cell-based. The note with it: Vero cells; for Ct value: 100 PFU/well, medicine added 2 h after infection, supernatant at 24 h, qRT-PCR target ORF1a/b, control group Ct 22.6.

B1: Novaferon: Recombinant cytokine gene derived protein, an analog of interferon (SEQ ID NO: 1); applicant's product, Genova Biotech (Qingdao) Co., Ltd. (protein)
chain: CNLSQTHSLGSKRTLMLLAQMGKISLFSCLKDRHDFEFPQEEFDGNQFQKAQAISVLHELIQQTFNLFSTKESSAAWDEGLLDKFRTELYRQLNDLEACMMQEVGVEETPLMNADSILAVKKYFQRITLYLMEKKYSPCAWEVVRVEIMRSLSFSTNLQKRLRGKD
modifications: Amino Acid Sequences Synthesized by Chemical Means
As to B1, the Ct value is, setting by setting: (Novaferon 0.001 ng/mL) 22.645; (Novaferon 0.01 ng/mL) 22.685; (Novaferon 0.1 ng/mL) 22.815; (Novaferon 1 ng/mL) 23.665; (Novaferon 10 ng/mL) 29.025; (Novaferon 100 ng/mL) 27.625. Besides, the “cytopathic effect (CPE)” value runs as follows: (medicine concentration 10 ng/mL) “no obvious cytopathic effect”; (medicine concentration 100 ng/mL) “no obvious cytopathic effect”. The “half maximal inhibitory concentration IC50 for the SARS-CoV-2 in vitro” value (preliminary calculation from inhibition rates based on Ct values) was 1.02 ng/mL.

(Values after US20230088483A1, “USE OF R[…] GENE DERIVED PROTEIN OR FRAGMENT THEREOF” (priority 2020, published 2023).)
